Experimental data from paper PMC7293044.

Target: T1, Edc3 (UniProt P39998 1-551)
T1 sequence: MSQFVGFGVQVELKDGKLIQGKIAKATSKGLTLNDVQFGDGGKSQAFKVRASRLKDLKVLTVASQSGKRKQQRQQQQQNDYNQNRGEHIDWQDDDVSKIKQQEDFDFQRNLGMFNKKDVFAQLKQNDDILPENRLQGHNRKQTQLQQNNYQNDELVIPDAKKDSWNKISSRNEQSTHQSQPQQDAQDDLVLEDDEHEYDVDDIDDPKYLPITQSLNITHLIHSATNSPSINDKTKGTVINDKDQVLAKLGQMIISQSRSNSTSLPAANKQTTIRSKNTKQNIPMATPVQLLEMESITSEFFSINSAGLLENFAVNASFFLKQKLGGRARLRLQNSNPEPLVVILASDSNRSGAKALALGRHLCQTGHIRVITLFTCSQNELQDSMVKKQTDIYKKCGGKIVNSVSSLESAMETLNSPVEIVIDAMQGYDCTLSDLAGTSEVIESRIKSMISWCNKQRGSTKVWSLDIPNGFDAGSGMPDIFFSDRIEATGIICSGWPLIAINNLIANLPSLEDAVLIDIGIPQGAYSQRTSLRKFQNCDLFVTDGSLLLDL
Assay: EMSA

B1: RPS28B 3'UTR stem-loop 60mer (WT) (structured_RNA)
RNA: AUUUUUCAAAAAAUGAAUUAAAUGAUUGAAGUCACUUAAUUUUUGUGGUUUUUUGGAGGU
Kd: 2550 nM
